# B1: purified Egd2 (expressed in E. coli) (natural protein, S. cerevisiae, UniProt P38879 1-174, looked up)
# chain: MSAIPENANVTVLNKNEKKARELIGKLGLKQIPGIIRVTFRKKDNQIYAIEKPEVFRSAGGNYVVFGEAKVDNFTQKLAAAQQQAQASGIMPSNEDVATKSPEDIQADMQAAAEGSVNAAAEEDDEEGEVDAGDLNKDDIELVVQQTNVSKNQAIKALKAHNGDLVNAIMSLSK
# Molecular target: the molecule itself
# Assay: cross-linking
protein,measurement,value
B1,stoichiometry N,2

# Source: article PMC4508901 (The Journal of Cell Biology, 2015)
